Source: paper PMC12647727

Target: FcRn β2-microglobulin complex (UniProt P55899)
Experiment: BLI

UniProt P55899, sequence (P55899 24-365, chain 1 of 2): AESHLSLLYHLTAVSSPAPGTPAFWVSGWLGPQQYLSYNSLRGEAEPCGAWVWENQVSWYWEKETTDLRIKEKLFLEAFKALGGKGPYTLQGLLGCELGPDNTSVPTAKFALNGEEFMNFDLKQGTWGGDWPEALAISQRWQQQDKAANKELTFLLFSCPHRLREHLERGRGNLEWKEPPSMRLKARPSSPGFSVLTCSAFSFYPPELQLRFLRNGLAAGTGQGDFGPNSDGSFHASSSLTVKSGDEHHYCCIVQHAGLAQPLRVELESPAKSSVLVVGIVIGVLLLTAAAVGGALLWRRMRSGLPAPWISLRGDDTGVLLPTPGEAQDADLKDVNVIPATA
UniProt P55899, sequence (P61769 21-119, chain 2 of 2, further chain): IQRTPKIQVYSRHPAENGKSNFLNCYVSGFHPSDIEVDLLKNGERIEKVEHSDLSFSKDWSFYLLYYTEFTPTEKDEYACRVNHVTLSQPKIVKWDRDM

Work on “single-chain IgG atezolizumab (scAtezo) (antibody)” yielded a Kd of 6.2 nM.
